Experimental data reported in a protein production outcome set (Wang et al. 2014).

Test: label from the status in PepcDB records

Sequence | protein production
MFVWHEYENAAEAAQSLADAVADALQGALDEKGGAVLAVSGGRSPIAFFNALSQKDLDWKNVGITLADERIVPTNHADSNTGLVREYLLKNKAAAAVWIPMVEDGKTETELHPDAVVDYALKHYKQPDVLILGMGNDGHTASIFPKAPQFQTAIDGSAGVALVHTTPVTAPHERISMTLDAIAHTGHVFLAIQGEEKKAVFDQAAQGENREYPISLVLNHQGVNCHVFYAE | not failed
MSLTSVVFLNPGNSTETFWVSYSQFMQAAARDLGLDLRILYAERDPQNTLQQARELFQGRDKPDYLMLVNEQYVAPQILRLSQGSGIKLFIVNSPLTLDQRELIGQSRQNYSDWIGSMVGDDEEAGYRMLKELLHKLGPVPAGHGIELLAFSGLKVTPAAQLRERGLRRALAEHPQVHLRQLVYGEWNRERAYRQAQQLLKRYPKTQLVWSANDEMALGAMQAARELGRKPGTDLLFSGVNSSPEALQALIDGKLSVLEAGHFTLGGWALVALHDDALGLDARRLGGPDWQLSLFQALTPAQARQLLRLGDQVGTRVDFRGLSAQGKPDSYRYPFGLQLLLREGHHHHHH | not failed
GGDTELSDSPTLPLNSILAGNCIEILKTLPDNSVDLIFADPPYNLQLSGELFRPEGSRVDAVNNAWDKFDTFAAYDHFTRLWLKEAHRVLKEDGTIWVIGSYHNIFRVGTALQDQGFWILNDIIWRKSNPMPNFKGRRFTNAHETLIWASKSDKSRYVFNYASLKTFNDDLQMRSDWLLPICSGNERLKGENGQKIHPTQKPEALLYRIILASSRPDDVILDPFFGTGTTGVIARHLRRHWIGIEQDPTYIKAAQARIDKAEVF | not failed
MFADISAQHWAFAIYVIGAIAICLTMIGLAALLGGRAQGRTKNKPFESGVDSVGTARLRFSAKFYLVAMFFVIFDVEALYLFAWSVSVRESGWVGFIEATIFIGLLLIGLVYLWRIGALEWSPRKPQLNNKNTD | failed
MSTEKIINLAAYAGKILLQSGAEIYRVEETMNKICTAFNVKEAESFVTPTGIIISITGEDEKITSTIKRIQVRTVDLRKISEVNDLSRTLQYKNFSLEEVADKLKKIDNEKKHSDLFLIFFSAVAAGFFTLIFGGTFRDFSVSFFIGIIIKIFSIIISRLEINDFFLNMVGGAIAAFIALLFKKLGVVVYLDKTIIGSIMLLVPGLAITNAVRDTIAGDLVSGVSRALDAFFTAVAIAAGTGLVFKIWINFFGGTGL | failed
MGSDISQFSASPAARQHTWTLAAYRYMARKRLGGKTAIDLKSVATKSWDIAPGEATVSPPAIFLPGQLDRVTGWEGKRFYPYVHPAQTMAGGIHTLQGPTRGYLIKDVWLVDGALYKGKASHWLSQKPSTFPTILIDHEIDRAAIYCTLNGNAWFGTWLMEDCPTYALACNEGIPVTTAPSARYPLFTQAPAYEDWLDMKPLRLRSAFFRELVLFDDQSNNRSRHARYRAMGDKLLSHVTHTQHPGVFLLRGGDGDLRLLRNELELAEHLRTTRGFRIVNPLKSDVPSIVAACAGAKVVIGVEGSQLVHGVNVLQAGGCLLTLQPPNRFVSYYKYLTDRDHQHFGFVVGLPEGDGFRIDIDEVERTLDLFPR | failed
MQKSEGSGGTQLKNRATGNYDQRTSSSTQLKHRNAVQGSKSSLSTSSPESARKLHPRPSDKLNPKTINPFGEQSRVPSAFAAIYSKGGIPCRLVHGSVKHRLQWECPPESLSFDPLLITLAEGLRETKHPYTFVSKEGFRELLLVKGAPEKAIPLLPRLIPVLKAALVHSDDEVFERGLNALVQLSVVVGPSLNDHLKHLLTSGSLSIIKSKIPTYCSICC | failed
MSDSKEITKVIVTMVVISAVAAALLALTYTPTQAQLKLLQAEQQKEAMKEILPQAADFEPVTGSEVDDDGNPVVLYYKGVDSSGNVVGYVVERNQVGAQGMIQLLAGISSDFSTITGFQVMKHSETPGLGALITTPEFQGQFVDLPVADTSLTKNGGQVDAISGATISSQAVVDALHSAVDYVSAQEG | failed
MAISDANRGGAPGAAPGPDPAHILHELAGLMAISPGRDFLDELVNRAVQRLGVDYAWVVLHGAKGEHARTVLSANCRMRWNGAESYLATGQSALAGVLSHATQYVCARDLERHVPGDLALRRLGAQACVAHALRDESGLQRGHVAFVFSEPLADPAIYVSALSACAAFTERAVLALDAERKARQEALQLASRYQALFEKAPVLINAFDARGKCILWNLECERKFGWSMEEVNNHPEPLALFYPDPQTRARVVASVSQAPGRAFEEWHPVTRAGKVLSTLWSNIVLESGTIVNIGLDITERKRAELALTRLATIDSLTDCWNRAEILKILRQEITRLRQHPDQPLAVVMLDLDHFKQLNDLHGHLVGDAALRYFSDQLRSNLRGTDFVGRIGGEEFLALLPGCDGDAALAMADRLRAALRNDPFTTEGQAAPLSVSVGIAFATPEDTAVSDVMRRADTALYEAKRRGRDRAVVYFG | failed
PDVSVQEMVSAYTTFVNKGIRVNPLPITRIEDQYGNVVAQFSPNMVEVLPPDAAYKMLYMLKSVVDGGTGSRLRYRYGFKLDMGGKTGTTQNNSD | failed
RIVGELEQMVSEDVPLDHRVHARIIGARGKAIRKIMDEFKVDIRFPQSGAPDPNCVTVTGLPENVEEAIDHILNLEEEYLAD | not failed
MRGWTAVTDTAGTPSGDGPEQAAVPGPGGGASPIGAGLVRRRRRWLRHTAFGVAALVLGAAGAGWAVYEKLNSNITADEAAAAELARYEKERPTSLVRDAQNILLIGSDSRSGDGNSQYGRDTGTERSDTTILLHLPANRHSATAVSLPRDLMVDIPSCRRPDGTRTAPTFAMFNQAFETGGSACTIRTAEKLTNVRIDHHMVVDFSGFKEMVDAVDGVEVCLKDPIDDKDAKLRLPAGKQLLDGEQALGYVRARKSIGNGSDTDRMDRQQRFLGALVNKVQGNDVLLNPVKLYPVLDAATSSLTTDPDLASLRGLYELVRGMRNIPPERVQFLTVPRTSYVNNANRDQLVEPDAEKLFARLRADAPLEVAKDYAGYDEQSGGDGTLSGKPLDTPAGTPDPTPTFRGNTAAEDGCE | failed
MMSQISLADLNAADKADFVAALANVVEYSPWIAEKLAGQRPFTGINQLHAALMAAIQSAEPDVQLALIRAHPDLANKTQRAAGLTAESTDEQNSAGLDRLSDAEYAAFERVNNAYREKFGFPYIVCVRRHTKDSVLRDFETRLLNIAKTETRRAIEEIGRISALRLDQLVVADDKLKVHGRLSTHVLDNHAGKPAPGIPVELIELASLGESRVIARTVTNADGRTDQPLIGGRPLPIGRYELRFRVAKYYAERNVPLSEPPFLDEIPLRFAISEPENHYHVPLLVTPWSYATYRGS | failed
MKAYQNILVAIDGSGADDALIEQVSALAAPLGSRVHLLHVVHSHTIDQERALREQAGEFLERYRAAMQQQGIEAEVLIRSGEPDREILKEIEERRYDLLAMAAHGHRLFSRLLFGSVSRALRNKIDIPLLLVRGEAR | failed
QLSSVTDSKKKKTILDQIFVWEQNLEQFQMDLFRFRCYLASLQGGELPNPKRLLAFASRPTKVAMGRLGIFSVSSFHALVAARTGETGVRRRTQAM | failed
MQEKYNFGKVSSQHKNYSKIETMLRPKGFDKLDHYFRTELDIDLTDETIELLLNSVKAAFGKLFYGAEQRARWNGRDFIALADLNITKALEEHIKNFQKIEQDMGVDELLEYIAFIPPVEMNVGEDLKSEYRNIMGGLLLMHADVIKKATGERKPSREAMEFVAQIVDKVF | not failed
MRLKPLPSRPLLGGVLFFALVFAFAGINPWGGGHEGVWNAPREGGMALFALAALAGVLLERRGRGLSVGGGALLALLASAGFLLAGAASTLLSPQPIWSWTGYPSVGDGLRFWALGVAFAWAVFLALETRVLSPRGLFGALLLALGLHALAVFPQVVDWKLDYTQTQGQTYVRCFDRERTDCYENPNATASGIYRGQMPIGLTSHRGHAAGVLALLGLVAAGLYLRSPRPGLLLLFGLGALALWFTQTRGGWLALWGTLALLALGLTWKRPGRLRPALALFLVGALSYGLYLALGQMGVQEPRRFPELGASFAEANAYSSGRLELWRKALAALPLRPWLGWGFDGYARASPHAVDWNGEDRRFVPAALSLPVRLVQGEDRLFYLEDPTGLRLLAPAPYAKAHNLFLDLLLSVGVLGGAAYLLWLGAALRQASWAKLPFALAVAGYLLYGLTWYDSVHVTPLALLALGALVTREEVWRGA | failed
MSLSMRDPVIPGTSMAYHPFLPHRAPDFAMSAVLGHQPPFFPALTLPPNGAAALSLPGALAKPIMDQLVGAAETGIPFSSLGPQAHLRPLKTMEPEEEVEDDPKVHLEAKELWDQFHKRGTEMVITKSGRRMFPPFKVRCSGLDKKAKYILLMDIIAADDCRYKFHNSRWMVAGKADPEMPKRMYIHPDSPATGEQWMSKVVTFHKLKLTNNISDKHGFTLAFPSDHATWQGNYSFGTQTILNSMHKYQPRFHIVRANDILKLPYSTFRTYLFPETEFIAVTAYQNDKITQLKIDNNPFAKGFRDTGNGRREKRKQLTLQSMRVFDERHKKENGTSDESSSEQAAFNCFAQASSPAASTVGTSNLKDLCPSEGESDAEAESKEEHGPEACDAAKISTTTSEEPCRDKGSPAVKAHLFAAERPRDSGRLDKASPDSRHSPATISSSTRGLGAEERRSPVREGTAPAKVEEARALPGKEAFAPLTVQTDAAAAHLAQGPLPGLGFAPGLAGQQFFNGHPLFLHPSQFAMGGAFSSMAAAGMGPLLATVSGASTGVSGLDSTAMASAAAAQGLSGASAATLPFHLQQHVLASQGLAMSPFGSLFPYPYTYMAAAAAASSAAASSSVHRHPFLNLNTMRPRLRYSPYSIPVPVPDGSSLLTTALPSMAAAAGPLDGKVAALAASPASVAVDSGSELNSRSSTLSSSSMSLSPKLCAEKEAATSELQSIQRLVSGLEAKPDRSRSASP | failed
MAVMARHESYYGNTKPAKLNEEKVTRVRFYLHDTLSGQNPTAVRIAHANLTGGSASPVGFGSLFVIDDPLTVGPEKHSKEIGNGQGMYVSGCKDLSKFTIVMYADLAFTAGKFNGSSISIFSRNPVAEEVGEREIAIVGGRGKFRMARGFVKVKTNKIDMKTGDAVLRYDATVYHY | failed
MDCRLKCTNQCTSLMMAFDKSHTIKGCSTEFSLSMTDTPILGTVKEPQRDYRTLDRQKLTPMFQHYTEVKEQYQGALLLYRVGDFFECFFQDAVIIARELELILTSKEGGKEIGRVAMTGVPHHALDRYARQLVEKGYAVAICDQVEDAAEAQAEKRMVERQVTKLLTPGTLTDDSMLPAKRNNFLAAIAMVEDKWGLAHADISTGEFFTCQSSNLDDLAVELLRLQPSEVLIPTSAPDIRNILRPGEPSEHIPKQLPTSFCYSLRSQAPFSLVEAKQRLLTTFRVKSLEGMGCEGLPLAIRAAGGLLEYIEDTQKAHVVPIQPLKTYGLTDFLVLDHQTRRNLEINQTVRDGSFHGSLLWALDRTSTTMGSRALRRWLLQPLLDLKGIQARQDTIQELYHHPALRQDLRQLLRQIYDLERLTGRIGANTASARDVYGLASSLVRLTDLAELAQEGHSPYLKALQTVPPELEELGKYVLAHIVENPPLHIREGNLIRSGVNPTLDEMRQSLEDDNQWLANLEVTEREKTGIANLKVGYNKAFGYYLSLPRSKSEQAPDNYIRKQTLVNEERYITPELKERETRILTAQADLNQLEYEIFTEVRATVAEKAQPIRDVAKAVAAIDVLAGLAEVAVYQGYCRPIMQMEPGLIDIEAGRHPVVEQSLGAGFFVANDTQLGHDHWHPDLVILTGPNASGKSCYLRQVGLIQLMAQTGSFIPAKTATLSICDRIFTRVGAVDDLATGQSTFMVEMNETANILNHATAKSLVLLDEIGRGTATFDGLAIAWSVAEYLAGEIQARTIFATHYHELNELASLLENVANFQVTVKELPEEIIFLHQVTPGGADKSYGIEAGRLAGLPSSVITRARQVMAQIEKHSKIAVGLRKGNRGKVMASQAAAEAAEDQAKQLDIFGF | failed
MTSAFNAYTALALAIVSEVIASAFLQQSAQFTRPWPTLAMVLFYVASFYALSVAIRVIPLSIAYAIWGGVGIILTATVSFVLFRQMLDAAAFVGIGLIVSGVVIINLFSETTVH | failed
